Reference: paper PMC10643153
Where “and” joins values, the source holds several entries; their conditions need not be identical. Equal values may be shown once.

What was measured:
[1] = target: recombinant goldfish AdipoQ (His-tagged gAdipoQ) (goldfish (Carassius auratus)); assay: native gel or EMSA; self-association; protein electrophoresis in native gel under non-denaturing conditions, Coomassie blue staining; parallel SDS-PAGE as reference for the monomer
[2] = target: recombinant goldfish AdipoQ (His-tagged gAdipoQ) (goldfish (Carassius auratus)); assay: SEC-MALS; self-association; top five fractions of the SEC peak pooled, 200-µl sample on a Superose 12 10/300 GL column linked with a DynaPro NanoStar instrument; apparent MW in solution

stoichiometry N [1]: 3 and 6
stoichiometry N [2]: 3
Substance: recombinant goldfish AdipoQ (His-tagged gAdipoQ) (domain or fragment)
